Two molecules from article PMC7977458, “The CK1δ/ε-AES axis regulates tumorigenesis and metastasis in colorectal cancer” (Theranostics, 2021) can be followed below.

One experiment concerns the target SKP2 (UniProt Q13309). Nature of the experiment: anti-Flag co-IP, immunoblot. To be noted: reference: wild type; sites S121.
Experiment [1] deals with T1, Flag-SKP2 (Flag-tagged S phase kinase-associated protein 2) (UniProt Q13309 1-424).
T1 construct: S phase kinase-associated protein 2 (SKP2); source: HEK293T, transfected, in lysate; also purified from HEK293T cells transfected with the Flag-SKP2 plasmid
T1 sequence (Q13309 whole entry): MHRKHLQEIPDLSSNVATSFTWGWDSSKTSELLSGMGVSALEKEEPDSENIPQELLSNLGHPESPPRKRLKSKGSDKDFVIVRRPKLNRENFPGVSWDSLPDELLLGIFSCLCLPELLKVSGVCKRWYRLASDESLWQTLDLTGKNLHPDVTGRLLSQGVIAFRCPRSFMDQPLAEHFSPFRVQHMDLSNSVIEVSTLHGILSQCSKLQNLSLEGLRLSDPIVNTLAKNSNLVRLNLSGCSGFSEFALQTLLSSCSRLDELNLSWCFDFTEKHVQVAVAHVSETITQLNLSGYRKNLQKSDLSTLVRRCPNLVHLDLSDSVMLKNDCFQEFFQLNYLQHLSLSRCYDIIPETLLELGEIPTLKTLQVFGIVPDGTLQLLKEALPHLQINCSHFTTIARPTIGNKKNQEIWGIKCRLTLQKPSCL
Nature of the experiment: pull-down; in vitro GST pulldown; GST-AES fragments and CK1ε-His purified from E. coli, Flag-SKP2 purified from HEK293T cells; with 1 mM ATP; Flag-SKP2 detected with anti-SKP2 antibody. To be noted: both partners purified.

Turning to “AES (amino-terminal enhancer of split) (from UniProt Q08117) S121A”, in the experiment with SKP2, the “binding against the reference” value is listed as “lost”.

B1: GST-AES, full length, phosphorylated by CK1ε-His (natural protein, human, UniProt Q08117 1-197, looked up)
chain: MMFPQSRHSGSSHLPQQLKFTTSDSCDRIKDEFQLLQAQYHSLKLECDKLASEKSEMQRHYVMYYEMSYGLNIEMHKQAEIVKRLNGICAQVLPYLSQEHQQQVLGAIERAKQVTAPELNSIIRQQLQAHQLSQLQALALPLTPLPVGLQPPSLPAVSAGTGLLSLSALGSQAHLSKEDKNGHDGDTHQEDDGEKSD
modifications: phosphorylated in vitro by CK1ε-His with 1 mM ATP; the paper maps the CK1δ/ε site to Ser121
notes: Amino-terminal enhancer of split (AES), human, full length; Same chain as m14, after the kinase reaction in the pull-down; also called full-length AES (with CK1ε-His and ATP); source: E. coli, purified; incubated with CK1ε-His and 1 mM ATP; not shown: GST, N-terminal, kept
As for B1, the binding result in experiment [1] is listed as “binds”.
